Consider one molecule from paper PMC5428262.

The test addresses GFP-tagged tomosyn1 (GFP-Tomosyn1), wild type (rat) (UniProt Q9WU70). Briefly: co-IP; GFP antiserum and protein G agarose, overnight, 300 ug extract of INS 832/13 cells expressing GFP-tomosyn1 constructs; lysis buffer with 1% Triton X-100, 150 mM NaCl, 25 mM N-ethylmaleimide; blot; cells in regular media or treated with 10 mM glucose or 30 mM KCl (15 min) in KRB.
UniProt Q9WU70, sequence (Q9WU70 whole entry): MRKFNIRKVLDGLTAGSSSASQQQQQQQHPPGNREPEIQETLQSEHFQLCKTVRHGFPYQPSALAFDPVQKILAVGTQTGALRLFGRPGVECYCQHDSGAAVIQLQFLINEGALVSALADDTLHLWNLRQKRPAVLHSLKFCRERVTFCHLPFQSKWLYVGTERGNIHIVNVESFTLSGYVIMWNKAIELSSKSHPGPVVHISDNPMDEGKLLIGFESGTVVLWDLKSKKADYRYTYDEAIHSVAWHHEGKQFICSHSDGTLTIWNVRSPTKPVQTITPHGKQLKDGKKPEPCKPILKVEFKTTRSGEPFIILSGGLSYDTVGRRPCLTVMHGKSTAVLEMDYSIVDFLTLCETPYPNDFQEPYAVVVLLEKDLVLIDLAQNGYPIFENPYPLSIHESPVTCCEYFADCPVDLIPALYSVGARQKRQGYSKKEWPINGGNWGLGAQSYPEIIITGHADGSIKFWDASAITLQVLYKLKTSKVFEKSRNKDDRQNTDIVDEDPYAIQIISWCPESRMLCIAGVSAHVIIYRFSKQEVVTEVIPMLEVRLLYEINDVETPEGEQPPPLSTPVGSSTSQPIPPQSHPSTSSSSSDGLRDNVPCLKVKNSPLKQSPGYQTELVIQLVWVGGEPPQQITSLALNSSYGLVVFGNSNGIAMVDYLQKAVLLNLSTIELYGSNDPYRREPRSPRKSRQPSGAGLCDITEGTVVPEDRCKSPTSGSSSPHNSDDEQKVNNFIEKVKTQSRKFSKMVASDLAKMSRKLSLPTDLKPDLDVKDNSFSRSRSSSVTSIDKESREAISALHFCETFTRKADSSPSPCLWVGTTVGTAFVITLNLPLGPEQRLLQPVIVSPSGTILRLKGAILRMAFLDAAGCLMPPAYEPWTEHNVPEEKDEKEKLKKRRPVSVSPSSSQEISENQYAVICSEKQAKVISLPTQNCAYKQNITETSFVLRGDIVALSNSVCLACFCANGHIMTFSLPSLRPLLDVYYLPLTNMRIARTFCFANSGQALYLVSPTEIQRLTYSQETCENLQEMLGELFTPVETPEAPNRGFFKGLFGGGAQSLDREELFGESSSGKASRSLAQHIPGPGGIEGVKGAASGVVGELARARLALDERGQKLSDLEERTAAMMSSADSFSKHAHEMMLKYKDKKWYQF

B1: secretagogin (INS 832/13 cells) (natural protein)
chain: MDNAHRQTQAHLDAACFWQIWQRFDKDEKGYIKETELDAFFDDLLAKFGIEDTLMEENVQKMKEQLMVGHDISKEGRILMKELASMFLSEDENFLLFFRLETPLDNSVEFMQIWRKYDADSSGFISAAELSNFLRDLFLHHKKVISEAELEEYTSTMEKIFDRNKDGRLDLNDLARILALQENFLLQFKMDASSTEERKRDFEKIFAHYDVSKTGALEGPEVDGFVKDMMELVQPSISGVDLDKFREILLRHCDVNKDGKIQKSELALCLGLKINP
B1 displayed a percent decrease of the interaction after KCl stimulation of 65.3% and a percent decrease of the interaction after glucose stimulation of 44.6%.
